Legend:
Test in all cases: malachite green phosphate release assay, Michaelis-Menten fit
Type in all cases: biochemical, Arabidopsis thaliana
[1] = substrate: N[C@H](COP(=O)(O)O)Cc1c[nH]cn1; settings: 50 mM Tris-Cl pH 7.5, 2 mM MgCl2, 22°C in table note (25°C in methods), substrate 0-1 mM
Description: malachite green phosphate release assay, Michaelis-Menten fit on IMPL2 (AtIMPL2)

[2] = substrate: O=P(O)(O)O[C@@H]1[C@H](O)[C@H](O)[C@@H](O)[C@H](O)[C@H]1O; settings: 50 mM Tris pH 9, 3 mM MgCl2, 22°C in table note (25°C in methods), substrate 0-1 mM, substrate inhibition above 1 mM
Description: (§1) malachite green phosphate release assay, Michaelis-Menten fit on IMPL1 (AtIMPL1)

[3] = substrate: O=P(O)(O)O[C@H]1O[C@H](CO)[C@H](O)[C@H](O)[C@H]1O; settings: 50 mM Tris pH 9, 3 mM MgCl2, 22°C in table note (25°C in methods), substrate 0-1 mM, value approximated
Description: as §1

Protein	Km [1] [µM]	kcat [1] [s⁻¹]	kcat/Km [1] [M⁻¹ s⁻¹]	Km [2] [µM]	kcat [2] [s⁻¹]	kcat/Km [2] [M⁻¹ s⁻¹]	Km [3] [µM]	kcat [3] [s⁻¹]	kcat/Km [3] [M⁻¹ s⁻¹]
IMPL2 (AtIMPL2) (Arabidopsis thaliana) (protein, plasmid pAtIMPL2H) LSDTELDRFAAVGNALADASGEVIRKYFRKKFDIVDKDDMSPVTIADQMAEEAMVSIIFQNLPSHAIYGEEKGWRCKEESADYVWVLDPIDGTKSFITGKPVFGTLIALLYKGKPILGLIDQPILKERWIGMNGRRTKLNGEDISTRSCPKLSQAYLYTTSPHLFSEEAEKAYSRVRDKVKVPLYGCDCYAYALLASGFVDLVIESGLKPYDFLALVPVIEGAGGTITDWTGKRFLWEASSSAVATSFNVVAAGDSDIHQQALESLEWH	180 ± 5	1.3 ± 0.2	7900 ± 200						
IMPL1 (AtIMPL1) (Arabidopsis thaliana) (protein, plasmid pAtIMPL1H) TTGTISPAHLLEVVELAAKTGAEVVMEAVNKPRNITYKGLSDLVTDTDKASEAAILEVVKKNFSDHLILGEEGGIIGDSSSDYLWCIDPLDGTTNFAHGYPSFAVSVGVLYRGNPAAASVVEFVGGPMCWNTRTFSATAGGGALCNGQKIHVSKTDAVERALLITGFGYEHDDAWSTNMELFKEFTDVSRGVRRLGAAAVDMCHVALGIAESYWEYRLKPWDMAAGVLIVEEAGGAVTRMDGGKFSVFDRSVLVSNGVLHPKLLERIAPATENLKSKGIDFSLWFKPEDYHTEL				180 ± 3	0.6 ± 0.1	3300 ± 100	450 ± 60	2.4 ± 1.3	5300 ± 500

Source: PMC4288329, “Characterization of the inositol monophosphatase gene family in Arabidopsis” (Frontiers in Plant Science, 2015)
